Experimental data published in article doi:10.1101/2023.01.27.525886 (bioRxiv, 2023).

B2: Vtc4 (natural protein)
chain: MKFGEHLSKSLIRQYSYYYISYDDLKTELEDNLSKNNGQWTQELETDFLESLEIELDKVYTFCKVKHSEVFRRVKEVQEQVQHTVRLLDSNNPPTQLDFEILEEELSDIIADVHDLAKFSRLNYTGFQKIIKKHDKKTGFILKPVFQVRLDSKPFFKENYDELVVKISQLYDIARTSGRPIKGDSSAGGKQQNFVRQTTKYWVHPDNITELKLIILKHLPVLVFNTNKEFEREDSAITSIYFDNENLDLYYGRLRKDEGAEAHRLRWYGGMSTDTIFVERKTHREDWTGEKSVKARFALKERHVNDFLKGKYTVDQVFAKMRKEGKKPMNEIENLEALASEIQYVMLKKKLRPVVRSFYNRTAFQLPGDARVRISLDTELTMVREDNFDGVDRTHKNWRRTDIGVDWPFKQLDDKDICRFPYAVLEVKLQTQLGQEPPEWVRELVGSHLVEPVPKFSKFIHGVATLLNDKVDSIPFWLPQMDVDIRKPPLPTNIEITRPGRSDNEDNDFDEDDEDDAALVAAMTNAPGNSLDIEESVGYGATSAPTSNTNHVVESANAAYYQRKIRNAENPISKKYYEIVAFFDHYFNGDQISKIPKGTTFDTQIRAPPGKTICVPVRVEPKVYFATERTYLSWLSISILLGGVSTTLLTYGSPTAMIGSIGFFITSLAVLIRTVMVYAKRVVNIRLKRAVDYEDKIGPGMVSVFLILSILFSFFCNLVAK

Experiments:
[1] = biological target: the molecule itself; experiment: cryo-EM structure
[2] = biological target: B2; experiment: cryo-EM structure
[3] = biological target: T1, Vtc3-TAPm (S. cerevisiae, UniProt Q02725 1-835); experiment: affinity co-purification of the endogenous complex
T1 sequence: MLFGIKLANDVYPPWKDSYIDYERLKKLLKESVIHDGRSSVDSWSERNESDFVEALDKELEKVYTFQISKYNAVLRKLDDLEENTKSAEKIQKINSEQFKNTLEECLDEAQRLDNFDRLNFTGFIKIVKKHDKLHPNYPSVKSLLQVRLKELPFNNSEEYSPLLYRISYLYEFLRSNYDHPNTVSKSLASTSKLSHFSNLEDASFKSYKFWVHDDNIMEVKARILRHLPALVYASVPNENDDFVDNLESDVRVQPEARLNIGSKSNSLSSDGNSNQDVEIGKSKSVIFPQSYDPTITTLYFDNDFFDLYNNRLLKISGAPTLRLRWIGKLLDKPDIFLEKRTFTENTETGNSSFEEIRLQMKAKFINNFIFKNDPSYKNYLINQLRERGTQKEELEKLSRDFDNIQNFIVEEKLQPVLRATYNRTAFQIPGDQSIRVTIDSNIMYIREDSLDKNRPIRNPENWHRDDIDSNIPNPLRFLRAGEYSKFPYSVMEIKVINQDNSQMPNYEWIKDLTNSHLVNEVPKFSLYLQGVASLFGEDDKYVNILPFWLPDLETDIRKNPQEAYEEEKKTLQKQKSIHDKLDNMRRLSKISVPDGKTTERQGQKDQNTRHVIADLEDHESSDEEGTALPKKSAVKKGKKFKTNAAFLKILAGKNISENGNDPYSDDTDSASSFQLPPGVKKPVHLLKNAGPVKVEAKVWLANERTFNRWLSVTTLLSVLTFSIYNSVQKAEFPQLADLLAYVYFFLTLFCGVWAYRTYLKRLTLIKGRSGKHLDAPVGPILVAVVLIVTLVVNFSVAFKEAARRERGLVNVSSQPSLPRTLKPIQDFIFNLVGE

[4] = biological target: T1, Vtc3-TAPm; experiment: cryo-EM structure

B1: Vtc1 (natural protein)
chain: MSSAPLLQRTPGKKIALPTRVEPKVFFANERTFLSWLNFTVMLGGLGVGLLNFGDKIGRVSAGLFTFVAMGTMIYALVTYHWRAAAIRRRGSGPYDDRLGPTLLCFFLLVAVIINFILRLKYNDANTKL
Q: Does B1 bind [1]?
A: Result: binds

Q: And the “stoichiometry N” value [2]?
A: The value was 3 Vtc1 per Vtc4.

Q: Does B1 bind [3]?
A: Result: binds

Q: With B2 as the binder, how does the “stoichiometry N” value [4] read?
A: The value was 1 Vtc4 per Vtc3.
